The results in this text go back to publication PMC9083366, “Brassinosteroid-Insensitive 1-Associated Receptor Kinase 1 Modulates Abscisic Acid Signaling by Inducing PYR1 Monomerization and Association With ABI1 in Arabidopsis” (Frontiers in Plant Science, 2022).

The assay concerns the target T1, GST-ABI1 (Arabidopsis thaliana, UniProt P49597 1-434).
T1 construct: ABI1 (ABA-Insensitive 1), clade A protein phosphatase 2C, Arabidopsis thaliana; also called ABA-Insensitive 1; not shown: GST, N-terminal, kept
T1 sequence (looked up): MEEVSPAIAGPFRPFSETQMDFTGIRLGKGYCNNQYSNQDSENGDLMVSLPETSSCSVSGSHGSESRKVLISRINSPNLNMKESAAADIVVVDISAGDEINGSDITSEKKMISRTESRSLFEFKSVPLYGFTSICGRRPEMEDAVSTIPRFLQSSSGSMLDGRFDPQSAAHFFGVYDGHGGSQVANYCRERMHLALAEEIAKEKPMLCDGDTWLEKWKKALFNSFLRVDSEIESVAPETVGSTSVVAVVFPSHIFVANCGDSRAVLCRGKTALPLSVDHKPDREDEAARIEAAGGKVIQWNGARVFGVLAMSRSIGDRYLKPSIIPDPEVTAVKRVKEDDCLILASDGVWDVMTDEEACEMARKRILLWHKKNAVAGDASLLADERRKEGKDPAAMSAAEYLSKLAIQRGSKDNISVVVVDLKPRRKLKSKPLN
Kind of assay: pull-down; GST-ABI1 incubated with HIS-PYR1 variants in the absence or presence of 30 uM ABA; western blot with anti-GST and anti-HIS. The following applies: both partners purified. (A western blot detects proteins with antibodies after separation by electrophoresis.)

B1: HIS-tagged PYR1 recombinant protein (natural protein, Arabidopsis thaliana, UniProt O49686 1-191, looked up)
chain: MPSELTPEERSELKNSIAEFHTYQLDPGSCSSLHAQRIHAPPELVWSIVRRFDKPQTYKHFIKSCSVEQNFEMRVGCTRDVIVISGLPANTSTERLDILDDERRVTGFSIIGGEHRLTNYKSVTTVHRFEKENRIWTVVLESYVVDMPEGNSEDDTRMFADTVVKLNLQKLATVAEAMARNSGDGSGSQVT
notes: PYR1 (PYRABACTIN …1), Arabidopsis thaliana, 191 amino acids; also called HIS-PYR1; PYRABACTIN …1; not shown: His, N-terminal, kept
Regarding B1, the binding result was “binds”.

B2: HIS-PYR1DD (phosphomimetic PYR1) (natural protein, Arabidopsis thaliana, UniProt O49686 1-191, looked up)
chain: MPSELTPEERSELKNSIAEFHTYQLDPGSCSSLHAQRIHAPPELVWSIVRRFDKPQTYKHFIKSCSVEQNFEMRVGCTRDVIVISGLPANTSTERLDILDDERRVTGFSIIGGEHRLTNYKSVTTVHRFEKENRIWDVVLEDYVVDMPEGNSEDDTRMFADTVVKLNLQKLATVAEAMARNSGDGSGSQVT
notes: PYR1, Arabidopsis thaliana, 191 amino acids, T137 and S142 mutagenized to aspartic acid; not shown: His, N-terminal, kept
On to B2, for which the binding result is given as “binds”.
